According to the DeepSol protein solubility set:

Assay: soluble on expression in E. coli; label from the status in PepcDB or PDB records

Soluble on expression in E. coli, not soluble:
MGSDKIHHHHHHMNARVNLNGLGTLHPMTSTRIATGTSGLDTILRGGLPSNRLYLLEGQPGSGKTTLALQFLLEGAAKGESCLYITLSETLDELQEVAQSHGWSLDALHIFELASAEAFLGDGRQQSILHPWELELDGTVKLIQAEVDRVKPQRVVFDSLSELRLLAQDSLRYRRQVLALKQFFAPRNITVLLVDDLTGTSEGRDSHLHSLCHGVVSLERLTLDFGAARRRMQVQKLRGVDFIAGYHDLSILRGGLRIYPRLIASDHHVTFIGDAVSSGVQEVDDLLHGGPLRGTSTLLTGPAGSGKTNLALQYVAAACARGEHCCIFEFDERTGTLLARAESLGLDLRRHLESGLLELRQMDPAELSPGEFAWQVRASVEQRNCRLLVIDSLNGYLSSMPQEKQLMLQMHELLSYLNQSGVTTFLINPQHGLVGTMSTGNLNISYMADTVILFRFFEAQGRIRKALSVIKNRSGAHEDAIRELRIGNSGIRLSAPLNDFHGVLTGTPHFIGDEAPLLGNDLARR
MGSDKIHHHHHHMNAVQVLNFQQNSVRTVADNKGELWFLANDVCEILGYTNPRRTVDLHCKSRGVTKRYTPTTSGEQEMTYINEPNLYRLIIKSRKPAAEAFEEWVMETVLPAIRKTGGCQVGPKTTADDRTGLRQAVAALVGRKGIDYSSAYSMIHQRFNVESIEDLPAGKLPEAVAYVHALTLHTGLTGEVLDAPPKAEPKLPIDGNSLADIAAMVYYGTWMIESGKDISAPLKQLGCRQAVTMWTVWHETRPILKRSAAALEVLRGYADKDASDRIAACLEGIYGKATVR
MGSDKIHHHHHHMNDSATQLTSTGSLTLRHLEAVTMDKAPTFTVKRIAFDEHYLPAENTRITTNFANLARGANRQQNLRNTLTMINNRFNALAHWDNPEHDRYRVELDIISVEMNLESAQYGNALPLIEILKTYIVDRKNNTRLEGMVGNNFSSYVRDYDFSVLLLEHNKHRSTFSTPDHFGELHGNLFKCFVNSQTYQEHFSKPPVICLSVSSSRTYLRTENQHPVLGVEYQQDEYSLTDEYFKKMGLTVRYFMPPNSVAPLAFYFAGDLLADYTDLELISTISTMDTFQKIYRPEIYNANSPAGKAYQPSLKNQDYSLTRIVYDREERSRLAIEQGKFAEEQFVKPYQATLAQWSAQYAR
MGSDKIHHHHHHMNELQAILEGFESSQESGEITFLATVVKTQGSTYRRPGAKMFMTNTGRTIGTISAGCLENDVFEYTQQRMSDGKPILVTYDRTASEDILWGFGLGCNGVVQVLIERLERKSIPNAIAFTQECFHKKHLGIIATVFAFEGEVDVELGSRLLLYPNGKIVTDIKDQYLIQSLSADTQAAFVNQKPSVNNYQLPFGSAEVFIEVIQPPTPLVIFGAGYGAVPIAKFAQALGWDVTVVDCRANDTTRARFPLACDVILSNRYIIHKQIFIDVQTIAVVMTHNYLDDLEILKMMLPSPARYIGVLGTKYRTERLLEDLSIKGIVPTSEQLNRLYSPVGIDIGAETPEEIAIAIIAEIQAVLKNRNSNFLKNRNQPIHKSYQDNFNL
MGSDKIHHHHHHMNETNFDWDDLRLFLAVAREGGLAAAAASTGKSAPTLGRRMLNLERRLGSDLFQRMARGYALTEDGQHLLAKAARLESLVLPITAIDPEQAIPVVKVSAGSWVTHLLCANVSEIIGSDRIRLRFIASDDVADIGRREALIGIRNHRPEGSGLAGRRITRVRFAVYARNRKVNTWARVIATTPSAKWVREEARTADAIEVTSPRNALDLALAGTARVVLPTFIGSQFDTLKQVSPLIGDLEHEQWLVTHHEDRFVPQVRKVIDRIYLILKQAKTSS
MGSDKIHHHHHHMNFKDCIDSYPFILMEGALGERLKREFDLDISGTVAMADLVYQQKGRLALETLWNEYIDIAYRYQLPFLATTPTRRANKERIYMAGYNESIIADNVDFLRSIKEAANVDMYIGGLMGCKGDAYTGEEALNLEEAIDFHSWQAGLFKSAKVDFLYAGIMPVLTEAIGMAVAMSDTDIPYIISFTIQRDGKLIDGHTIDDAIHCIDNHVSNKPVCYMTNCVHPDIVYEALSHKFNQTQTVKSRFWGIQANTSQLSYKELDGANHLHTSSAADLSEAILKLKSDCHLKIFGGCCGTDSSHMEKIAKISEVT
MGSDKIHHHHHHMNGQLLRQIANYQILYSACCKDLGLLRGKIGISLFFFHYAHFCGDSLYSDYANELIGDVYDDIRIDTPWGIRNGLLGIGWGLEYFMQKGFVECGSNDILTELDNKIMERDLRRVKDYSFDTGIEGLAWYVLIRLLSSERYLQKPFDKMYLDDLRGVCENVPNKVCHPGISLLLDYLVGKQIDDWYLVVLGKITSQRTGGEKKEALLWVEGLKYLLR
MGSDKIHHHHHHMNIEGNIAIICITENGKKLALKINSLVNNCVIYQVKNKKSNLVVEETCVHTVQKKLSDFVGEIFSKFDYIVFIMATGIVVRSIAPYIISKFSDPAILVMDEKGKNVISLLSGHIGGANSLTQYISSLIDANPVITTATDINQKASLDMIAKKLNAHIDNFRESVKEVNSMLVNNKCVGLYVDEGYQVDTRGFKLIESKDELRDSFSNTYIEKLVVVSNKINCIEDIENLNLDNKFEHCYSTQKIIKVIPRDIVIGIGCRRNTDSELMYNSLEEFLNKQNIDIRAINTVGSIELKKDEKAIIELSKILKVPFKTFSVDEISKVDNLFDKSDFVKKNVGVYSVAEPVAYLLSKGNLLVEKHKYKGITFSVGRIKI
MGSDKIHHHHHHMNIHVKECGDLEAPLLVFLHGGGVSGWMWSNQVDYFHHYHCIVPDLPHHGLSGRETSFTILNSAEALIRLIEKKAQGRDVIVIGFSLGAQILLQMISINPRLITKAIVNSALVRPIPIPEKLLELSVKSTFPLIKSRWFSRLQAKTLYIDDDLFETYYRESCQMTQDSLTQILKENVSFRLPENVHEISTRILTTVGAKEKRIMKTSATMITHAHPNSTGIIIPSVGHGIPLAKPDQFNQLVDQWLKEERLPHDVGLIEK
MGSDKIHHHHHHMNILMLMLSDNPDTGGMEKHARELSSELARLGHTVTLAAASQHLSDLEPAVKTRALDTGGSRNSPFLLLTVLRLIRANGFDVIHAQGTKAAFVLQRLTPFTRSLMRVATIHGFKSRYPKAAAFHQLIAVSQALATDIAQPGVTVIYNGVSVIPQAPALLPKETERPVWLAVGRLVSVKGFDFLIRTFQYCPGTLLIAGDGPERQRLADLISSTHQSETVKLLGFRSDVPALMAAADGVVISSEREGFSYVCAEALLLGKPVISTDVPIANEILPEKHIFRGEDPKRFAAYLSQDTSTLVAEQAEAQAFAADQLSLSSMASQTLNVYQRAIANLVSIH
MGSDKIHHHHHHMNINFENHGGNIEKEARQLGLSTENIIDASASIVPFKLPKKLNNYLINSIKNRSIRSYPDSSYFEVRNAISKWHNIEPSMILPGNGASELFTWAARDASLNGISSLPSPGFGDYQRALKCWNATYVHNPLPLSWTNNNPQSFPIEPKANVLWITNPHNPTGQLWSRSSIENLLANYKLVICDEAFISLVPGGESQSIIDLTNIYKNLIVIRSLTKFLGIAGLRVGYAVTNSDRLLKWKEIRDPWPVNTLAINATKMIMKDSKMHKKRLNKIHRWVEKEGKWLYQSLSSFSTIKPLPSTTNFQLIKSESSILNLLENLKKRGILLRDCRSFINLDEKWFRISLLKREQNIQIINTLKDYIN
MGSDKIHHHHHHMNKIAVIGKVFVDIKGTSFAPLHKDAKNVGDITFSNGGTGRNVAQNLAVLGNDVRFISTVTNDQIGVGVLEELKSYGANVDHVEMLEDHGMGMWLAVMDNEGDLQTSISKQPDAKLLEEAILRQSVYALDGVDAVAIDLDLSVTVLERLIHICRKMELPLYGVCGHLSVIERNRHLLQGFTGFICSREEAEILSDLSIVTVEDAIHVANELAKKGAPFTVVTMSELGAVYVDRRTATSGHVGTKKVKVVDSTGAGDSFFSAVLSELTESKRAEEALQLGMKVAAQVIASTENGLIPEMLETLR
MGSDKIHHHHHHMNKIVSFFILILVCSCSDRKEHIANILSMNSIDIKTNRINKDEVIARGAFPFEMIDSLFFLFNGDPSSGALVLCESNASELGHFLQKGNGFGECITPGYIGHCNDTIYVSERSRTRRMTYLLSNHNDSLQYKCLEDVSPKMNSEFYYQICRLQSGLFVGARLFGKEHLFTLLDESLDTLTTFARVPIDIEENANNKLAPFIGHLCIDDNTVYYASNDFSYMAAYDILSEKEIKPVFERMYISPIIQKSANGISLDKYKHLLGFGDIRVYQNYIFATYIGKPDITMDQENDISALVPTHLLVFNKDGVPIVKFKFPFKIRSFVFTKSKMYLLDVDCNIESVDLVELWKHLPD
MGSDKIHHHHHHMNLRHLVFFKELARTQHMAKAAENLGISQPSLSYAIKKLEHELGVPLFEADGRNIKLTSIGGVYLKYVTATLNDLSQGNELVKQLMDPDTGHVKLGFTYTLGQQLVPELLSHFKNQSENQAITFELGQGNSGVLLQALADEKYDIVLASNVDRLGEQLTAHLFDFIPLVQQEIVAVVPNDHPAVQKNPLHVEDLAPYPMILFSQNSGLRPLIDQILSAAHVQPKVAYEVEEDYTMAGFVRYNMGVALMPYLPLLNPERVQIKHLADQPLQHQIYLVVRRSGFITPAVHRFQEFIRSYCWQHYTNQERSI
MGSDKIHHHHHHMNMLVRFFIMVSLLKQQLNKQLATEYLSVERLMAPVVRHYRVLPHDMGFRDHLPNYRYLSFIELNITNWLMACCHQKGIKNLGWIIAMQEMVYLKQIKFLDKMTVNSRVVGWDKKYVYFEHQFFVKNQLMAMGMTKFVLTNKQGKCATEVLDMTGEQLNEVIDTWSQHQVAIKSAKSTESTKAA
MGSDKIHHHHHHMNNKDLWIKEEIIWSEHKCIRFAAGGYEALIIPDVGGNVVELKDTNKGVTILRTPKKDLKFEDFKNRPQVYGLPVLFPPNRIDDGTFKLGDKTYKFPINEAKNNNYIHGFIKNSKWTVHKKKIDQDKALVEVVFDFTKENEAYKYFSHEFQFKLSYELSSKGLKQTTSVVNLSSEEMPLSVGYHSAFNVPFIEGSEDSNCRVKISIDKFWKQDSRNLPTGESFAPTGEQKEYLENGVAVASHPIESLFSLKDIDVNGKTFRGACIEDASKNTRVVYEMSSEYKYLVIWNDMGDKKYACIEPQTSIINSPNVKLDRSVSGFKTLKPNESWSGVCKLYIENM
MGSDKIHHHHHHMNNSEKMLVCLDQQDLDKADKYFKRALVQDDSETLLSLAAYLEGIGFFPQARQIYEQVKEEFPEVLINLAQIAFEDGLVEEAFRYLEEISEDSSIYVEALLVKADLYQAEGLSDVAREKLLEASHLSDKPIILFGLAELDMELELFNEAISYYAQLDNREIYELTGISTYQRIGIAYASLGKFEAAIEFLEKAVELEYDDQTVFELAALLFEREEYQKANLYFKQLDTINPDFEGYEYAYAQSLHAEHKIDDALAMTQKGLAKNDFDANLLFQASQYAYELHDEAGAEDYLLRAKEVADDSNELALRLSNLYLEQERFEEVVALFDEEVDNVLARWNKAKAYQALERDDEAIALYDELAGELAENPEFLADYVAVLRQLGRLDEAKEQASRYIQLVPDDLAMQEFLNEE
